This note sets out measurements from the supplement of paper PMC6755084.

B1: F1*; the commonest letter at each place (parent)
chain: GAGACCGCAACTGAAAAGTTGTTATCACTTGTCGTAAGACACTTTGGATGGGTTGAAGTTCTGCACGTAGAAGCAAAAGGC

The variants in the series derive from B1. Briefly: fraction ligated after 30 min (ligated reads / total reads); higher = more ligase activity. The following applies: with F1*sub RNA substrate (template-directed ligation), 42 °C. A digest of the protocol: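 Ribozyme variants were transcribed with T7 from PCR-amplified oligo-pool templates and gel-purified. Ligated and unligated bands, separated on gel, were reverse transcribed with barcoded primers and sequenced on a MiSeq, with core bases filtered at quality ≥20. Fraction ligated per variant was computed as ligated reads divided by total reads.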
For GAGACCGCAACTGAAAAGTTGTCATCACTTGTCGTAAGACACTTTGGATGGGTTGGAGTTCTGCACGTAGAAGCAAAAGGC, the fraction ligated is 0.698.
On to GAGACCGCAACTGAAAAGTTGTTATCACTTTTCGTAAGACACTTGGGATGGGTTGAAGTTCTGCACGTAGAAGCAAAAGGC, for which the fraction ligated is 0.0586.
Take GAGACCGCAACTGAAAAGTTGTTATCTCTTGTCGTAAGACACTTTGGACGGGTTGAAGTTCTGCACGTAGAAGCAAAAGGC: the fraction ligated turned out to be 0.512.
For GAGACCGCAACTGAAAAGTTGTGAGCACTTGTCGTAAGACACTTTGGATGGGTTGAAGTTCTGCACGTAGAAGCAAAAGGC the value was 0.738.
The same measure for GAGACCGCAACTGAAAAGTTGTTATCGCTTGTCGTAAGACACTTTGGATGGGTTTAAGTTCTGCACGTAGAAGCAAAAGGC: 0.79; for GAGACCGCAACTGAAAAGTTGTTAACACTTGTCGTAAGACACTTTGGATGGGTTGAGGTTCTGCACGTAGAAGCAAAAGGC: 0.345; for GAGACCGCAACTGAAAAGTTGTGATCACTTGTTGTAAGACACTTTGGATGGGTTGAAGTTCTGCACGTAGAAGCAAAAGGC: 0.893.
The same measure for GAGACCGCAACTGAAAAGTTGTTATCACTTGTCGTAAGACACTTTGGATCGGTTGAGGTTCTGCACGTAGAAGCAAAAGGC: 0.104; for GAGACCGCAACTGAAAAGTTGTTTTCACTTGTCGTAAGACACCTTGGATGGGTTGAAGTTCTGCACGTAGAAGCAAAAGGC: 0.621.
Consider GAGACCGCAACTGAAAAGTTGTTATCACTTGTCGTAAGACACTTTGGATGGGTTTTAGTTCTGCACGTAGAAGCAAAAGGC, for which the fraction ligated came out at 0.378.
On to GAGACCGCAACTGAAAAGTTGTTATCACTTTTCGTAAGACACTTTGGTTGGGTTGAAGTTCTGCACGTAGAAGCAAAAGGC, for which the fraction ligated is 0.0299.
Regarding GAGACCGCAACTGAAAAGTTGTTATCACTTGTCGTAAGACACTTCAGATGGGTTGAAGTTCTGCACGTAGAAGCAAAAGGC, the fraction ligated came to 0.127.
For the variant GAGACCGCAACTGAAAAGTTGTTCTCACTTGTCGTAAGACCCTTTGGATGGGTTGAAGTTCTGCACGTAGAAGCAAAAGGC, the fraction ligated amounted to 0.00606.
For GAGACCGCAACTGAAAAGTTGTTATCACTTGTCGTAAGACACATGGGATGGGTTGAAGTTCTGCACGTAGAAGCAAAAGGC the value was 0.43; for GAGACCGCAACTGAAAAGTTGTTACCACTTGTCGTAAGACACTTTGGTTGGGTTGAAGTTCTGCACGTAGAAGCAAAAGGC, 0.815; for GAGACCGCAACTGAAAAGTTGTTATCACTTGTCGTAAGACACTTTCGATTGGTTGAAGTTCTGCACGTAGAAGCAAAAGGC, 0.165.
Regarding GAGACCGCAACTGAAAAGTTGTTATCACTTGTCGTAAGATGCTTTGGATGGGTTGAAGTTCTGCACGTAGAAGCAAAAGGC, the fraction ligated worked out at 0.765.
For GAGACCGCAACTGAAAAGTTGTTATCACTTGTTCTAAGACACTTTGGATGGGTTGAAGTTCTGCACGTAGAAGCAAAAGGC the value was 0.831; for GAGACCGCAACTGAAAAGTTGTTACCACTTGTCGTAAGAAACTTTGGATGGGTTGAAGTTCTGCACGTAGAAGCAAAAGGC, 0.524; for GAGACCGCAACTGAAAAGTTGTTAGCTCTTGTCGTAAGACACTTTGGATGGGTTGAAGTTCTGCACGTAGAAGCAAAAGGC, 0.706.
Turning to GAGACCGCAACTGAAAAGTTGTGATCACTTGTCGCAAGACACTTTGGATGGGTTGAAGTTCTGCACGTAGAAGCAAAAGGC, the fraction ligated was 0.827.
For GAGACCGCAACTGAAAAGTTGTTATCACTTGTCGTAAGACACGTTGGATGGGTTGTAGTTCTGCACGTAGAAGCAAAAGGC the value was 0.764.
The same measure for GAGACCGCAACTGAAAAGTTGTTATCACTTGACGTAAGACCCTTTGGATGGGTTGAAGTTCTGCACGTAGAAGCAAAAGGC: 0.8; for GAGACCGCAACTGAAAAGTTGTTATCACTTGTCGTACAACACTTTGGATGGGTTGAAGTTCTGCACGTAGAAGCAAAAGGC: 0.836.
For GAGACCGCAACTGAAAAGTTGTTACCACTTGTCGTAAGACACTTTGGATGGGTTGACGTTCTGCACGTAGAAGCAAAAGGC the value was 0.563; for GAGACCGCAACTGAAAAGTTGTTATCACTTGTCGTAAGACCCTGTGGATGGGTTGAAGTTCTGCACGTAGAAGCAAAAGGC, 0.797; for GAGACCGCAACTGAAAAGTTGTTATCACTAGTCGTAAGACACTTTGAATGGGTTGAAGTTCTGCACGTAGAAGCAAAAGGC, 0.793.
With GAGACCGCAACTGAAAAGTTGTTATCACTTGTCGTAAGACATTTTGGACGGGTTGAAGTTCTGCACGTAGAAGCAAAAGGC, the fraction ligated was 0.774.
The same measure for GAGACCGCAACTGAAAAGTTGTAATCACTTGTCGTAAGAAACTTTGGATGGGTTGAAGTTCTGCACGTAGAAGCAAAAGGC: 0.815; for GAGACCGCAACTGAAAAGTTGTTATCTCTGGTCGTAAGACACTTTGGATGGGTTGAAGTTCTGCACGTAGAAGCAAAAGGC: 0.84.
The same measure for GAGACCGCAACTGAAAAGTTGTTATCACTAGTCGTAAGACACTTTGGATGGGTTGGAGTTCTGCACGTAGAAGCAAAAGGC: 0.797.
For GAGACCGCAACTGAAAAGTTGTTATCACTTGTCGTAAGATACGTTGGATGGGTTGAAGTTCTGCACGTAGAAGCAAAAGGC the value was 0.782; for GAGACCGCAACTGAAAAGTTGTTATTACTTGCCGTAAGACACTTTGGATGGGTTGAAGTTCTGCACGTAGAAGCAAAAGGC, 0.792; for GAGACCGCAACTGAAAAGTTGTTATCACTTGTTGTAAGACACTTTGGATGGGTTGATGTTCTGCACGTAGAAGCAAAAGGC, 0.842.
